Reference: the DeepSol protein solubility set

Experiment: soluble on expression in E. coli; label from the status in PepcDB or PDB records

Soluble on expression in E. coli, not soluble:
MGSDKIHHHHHHMEKVKAILFDKDGTLMDFHSIWIKVAEELVAEYIKLYQLPQSMQPTLLKEIGVDGVFVHPRSAIAAGTSLDVAKGLCKYITSSKEEEMHEWVSEKLFALMYEHRSYMKMTADLPRILQSLKDRGFILGVVTADDFAPTELFLKQYQLETFFDYVVASDTFAAQKPDKRIIESFCERFHLKACEVAVVGDTPTDLYLAKNGDCYAIGVLSGTGNRQTLEPLADLVVQSVGDFISHSGEFVWEKGKSNV
MGSDKIHHHHHHMELEKIRKLYEKVDPSQLTEREKLLTELIFTDRKLKTDKLPNGRYRILQFSGNNFEELENTLKLLLPDFVKSIGEEKIVIEAFSTDSPTNSELFDIFQTLSQDMGEEVTAYVGRFVEKNKLSEVYSEEYKIFESQQTFSEYILSESLNLSENRILQEIRKELLENPEDQKLVEAMYKASSNQTKAAKILYVHRNTLINKIKKYEQKYGLQLSGSDLTLAYNLL
MGSDKIHHHHHHMELKDYFPEMQVGPHPLGDKDWMSIKEGDQYVHFPKSCLSEKERLLLEVGLGQCEVLQPLGSPWQRYLLDHQGNPPQLYETSQFIYLNHQQALPDDLVELLQQMIAGLEVILPISATQTAFLCRQAISIKVLRWLEDLLPTLESDFGLALTMFVGNAWYQVAAGTLRECFEEECQLLTAYLRQQSGRKLLTFSGLMLWSLLSHHTFLALTRQFHQFLSPQSDMADVVHALWSEHGNLVQTAQRLYIHRNSLQYKLDKFAQQSGLHLKQLDDLAFAHLFLLKY
MGSDKIHHHHHHMELKEHFNNKIFKLISETADELGLECYVVGGYVRDIFLKRPSKDIDVVVVGSGIEMAQAFGRKLGRGARVSVFKNFGTAQIKYHDTEVEFVGARKESYSHDSRKPVVENGTLEDDQNRRDFTINAMAVCLNKARFGELVDPFNGLDDLKERTIRTPLDPDITFSDDPLRMMRCVRFATQLNFYIDDTTFEALSRNKERIHIISKERIADELNKILLAPIPSKGFIELDRCGLLPLIFPELVALQGVETRNGRAHKDNFYHTLEVVDNISKHTDNLWLRWATLLHDIGKPRTKRWEPRIGWTFHNHNFIGEKMVPDLFRKMKLPMNEKMKYVQKLVSLHMRPIVIADDVVTDSAVRRLLFEAGDDIDDLMMLCEADITSKNEARKQKFLDNFKLVRQKLKDLEEKDRIRNFQPPVDGEEIMRIFDLQPCREIGSLKSSIKDAILDGIIPNEHDAALEHMLKKAKSMGLTPKNL
MGSDKIHHHHHHMELTESIRLLFPPEERAQLDISAIKGDASNRQYYRVTGQGSVSVVCADPAFRATAVENYPFLIVRDLFARHGIRVPELLGMVHEQGLLRLEDCGDLMLQDEVPLLDRNRLSARYRQVIDLLVRIQSIRPDKDALTTTLPFSLSFDHEKLMFEFDFFIEHALNGYFAGRLGKPAIARLREEFINICDLLVLPKHFVLNHRDFHSRNIMLFRAEPVVIDFQDARLGLPQYDAVSLLRDSYVRLDPGMVNELKRYHFNQLVQLGLTSMGEAEYLRLFDLMAFQRNVKAIGTFCYQTTVAGNRTFEPSIAATLSYLREYIEARPELAMAGRLLKPIIPEISR
MGSDKIHHHHHHMEMDERFKDKWYLVKYKFFSNPFYKDFDVYDSSNNVVFTARMNALNPVTRDIVVYEVNKARSEILLISGKHFIRWPNNFEMTSIATREKIGTFRNGPAGWAVLDEYGRQVAILKRIEDPSGAIMYQIRMDSTSVCEYRFINIITPVIMIDFPDESIFSKKMGIGLALVLGYQSVAFNYTYQGW
MGSDKIHHHHHHMENQNHAFNYAYLLKQVKARVLLAQKKAIYTANEEMLSMYWDIGKLLSESQKQIGWGNNALEKLANDLKNDYPEMKGFSVRNCQFMIQFYNEYNQQLTNTKRAVSYLNNNEIVLPISKLGWSHNITLMQRTKDIKARYWYMIQCLKNGWSRDFLIEAIKQDYYHSHGALASNFDTTLPEIQAKQVKETLKDPYIFDMLTFTEEYDERDIELGLIKHIEKFLVEMGAGFAFMGRQYHIEVSEKDFYIDILMYNAFMHRYLVVELKRGEFQPEYIGKLNFYCSAVDDILCREGDNPTIGLLLCQNKDQIMAEYALRDVHKPIGISDYELGQALPKDIKSGLPSIEELENKLSRDLQDIDNKE
MGSDKIHHHHHHMENYKERKLIAIDLDGTTLQSDGRSISRYTKYIFKQVESLGHIICITTGRPFRMSLDVYRELELTSPVINFNGALISMPNDKNWEHTKSYYIDRSFIFDLLRHQQNFNLHFFAVEYRRKFFLNTFRNVEPKLFGVEKFQPYNRLRADRVTENPHAVLLSTRQKDKLALAEEMKRHYNGKIDVGVWGGPNGILEVVPKGISKASGLNHLLKVLDIPLENLIAFGDEHNDIEMFKLAPNAYAMKNASARLTPYASEILPWTNDEDGVARQLEKLFLTPNK
MGSDKIHHHHHHMEPGSQVTDRLRFGCTGCGKCCTGHHVPLTLAEARRWAEDAGQVVVLIEAFVVDGPGMPLEQRDHVLRRSHPVHCGEGEARVSVTFAAFNPGRCRNLDANDLCTIYEQRPLVCRIYPVEINPHIPLRPDSKDCPPEAWQQGPELIHGTQLVDVELQALVQASRQADRDDIAAKVAVCQALGMTTSALKGNGFTAYLPDMGAFAAALAQVQGNEGAQWTLHVQDEALTASLQALGLRTTHETPVYYAFIGF
MGSDKIHHHHHHMEQSATPACSICFPDSICRISPSSPLASPNGDEYHMKIALLCSGLGNVQRGHEIFVRDLFDMLKGSVDITLFKGGGEPAPNELVIDNVSRNAPSLQNIHLAVSPRWKVAMQEQERIRIETETFAHAALRPLLEGGYDIIHCLEQEVCNRLYGFRHLFAHTPKFLFSNGGAIPAAKLSNCDFVQEHTEYNLQHSAREKAFCIPHGVDIQRFNPSISSDFRARYGIAEDAFVVISVGIICYWHKRMDYLIKEVAQIPEAHLLIVGQECADTPAIKALGEKLMPGRITFTKMPHDELPQAYAAADVFALGSLFETFGIVYIEALAMGLPVFCTEHPNQRSIVREGVFLDIKQAGALRDALLKRDPAQMRYLRERGPQIARETYALEKLKSAYIEHYQRIAASEVSLPRYTFKTKLQDNVRSLYRRLSRG
MGSDKIHHHHHHMERDMICTPISYQNKTSAQTFSNFLKHTRTENNLSQEDLCGLLRQKSCLFDTLDSITISRWERGVNIPSLAKQSEIVEIFGSELFDIYREDKKFINEGLALINLFESNIERSDHPYYRNTPYRVEFIESHHHNFMALLQLSLVYESNPRLSFVSRNLSQPFFHGLSLVVAFSSGDQIVGHSLFCRSQGKIALEFMNDEVDLFEVINHNSQALPDTLMVFSSFGVTPYIENYMMSVYLNELAASRSLKFLSFNICDESLKRKLTQFKLPIFKVRTIEGCCKPIKNYSFFSSRTEVMANRNLLKLSVIPSSKSQTIDPIFFMQLETPI
MGSDKIHHHHHHMERLAQPSRFLQRKLFEVNLLKPVTVEKEAPIGEIRRILRDTGSRIVLVVNGEGRLEGVIYRSSVILVTSRKSEAKALDIMEEPAVVLKPSYSLEEAVFSMLKFDEWYAPVVNDANRLVGVLGLETPIRLLLEAGFYRGYTASDAMTRDVEYVLEGDSLTRVWEIMVERRYAGVPVVDQRMVVRGIVTQYDLIRKGYTRLGLESEAPPHRVRVESVMTRSVIYVAESDNLEDVARIMLDRGVGRVPVVKSRDSRVLTGIIDREDLVRLYFKSRGRASL
MGSDKIHHHHHHMERVLIIGALTFVGYHLVNKMIAEEVEVYGLDFDEFDSMTKINEEKLLLIGRNALFTYYSIRDEDGWRSVEEEKFDAVYFCLYEPNQQRGFRNERVILQYLKRMIRLCEEHKVKLNLISSIEVGNADESENKRLFSKVEEGLKKGEVQYSVFRVPTLYGPWQPSFMMYHQLMLSELGEKECHYAGEENGSDLLYVEDVCEYLWENGMNEEHLGIYNLLSGKKSLWKKGMNLLRAEDKVNKENAEERDGAAEDILIKRNTPLEYGLNKQLAHMKKYKELYEG
MGSDKIHHHHHHMETFGGQVGRQEVPESSIDRYRGKLPNQLLTYWAEHGWCGYGDGIFWTVNPQEYDAVVASWLEGTKFETFDAYHLIARSAFGDLYLWGEEIGASLKITSILSRYTTHKSLCLGSQMDKGLQSFILSRKVGSNDYGDLFRPARKKLGTLHHDEMYGFVPALMLGGADTLDHLEKVKAVEHLVLLSQLSDLESYDFQDL
MGSDKIHHHHHHMETIGQTLAKKDNHKYDTEKMTQAILSDQEIANFIAAHHLSKEQIKISLPKFNQYRLERTRFENHDQAYIAKGYQPLLVMNEGYADVAYKETKELIAAKKTQAISDRINVVSLPRSYKNISFDDINLDDVKRLDVFKRVADFVEQYPNPEQKGLYLYGDMGIGKSYLMAAMAHELSEQRGAATTLLHFPSFTIDVKNAINTGTVKKEIDAVKTADILILDDIGAEQSTSWIRDEVLQVILQYRMLEELPTFFTSNYSFKDLEAKLANIKGSDETWQAKRVMERIRYLAKEIHLEGENRR
MGSDKIHHHHHHMETPTQDMDVRWLYTQSQLKLREILPTNKTFDVIQISELVDPTDFISPNSVVLSVGIAFAETPDGLRDWAHRLADAGVIAIGFGSGLTFPQVPQALIDASLHLGLGLFEVPREIPFISITSSVRDEQTRRAGRLQQELLLEQERLNSIAISGGIEALCRAAADYLGGAVAIVDSDGRVACSITTDDLDALPQAVSRLNGSSQALTDATNFGFIHRMTRYGDRHHVLSVLMPTRPSEQHRALIRHCAGLADILLQRPEAMRDREIEVRSLAMSLLLGRSDDLATIHRVFADITDASGNIRPILITGNTPQSVRKALSSVATALYKQERALAHLRLAESTELLFLRGSRSVHNIVQLFGTAASGVRLCIGLPTRAENIDKKLIRELTATAKTLQLGTHAEPRDGTLLWLQNPELRKILKIRSRDTYDRLLDHDRTNNTELAPTLVSFTQHSGHIGDTAKELGIHRHTVRTRMIRIEEICEIDLNDPLTRAELLLVIATKEGDVEKQ
MGSDKIHHHHHHMETTKLGNLKLYGAGHAAGGAYHNVSIKGEGIVGEGLSAVGCRIYGTGLFLGKAETERLRVLGESECKGDLTAGKINIYGTMKVSGSLQFDRFNLKGQTEIGGNMTGESCDVKGKLSVIGDCETEMFHVTGCVDVSGLLNSGEIKLGLSHDINHVQEIGGTTITVKRRASFFSRKKGKLIADVIEGDRVYLENTEAAVVRGKEVIIGPGCSIGTIEYEYKCECDPHSQIKEKTKL
MGSDKIHHHHHHMEVASATNNPVQNPAGALAAPGNDAASLKNEFMTLMIAQIKNQDPTKPLNSAEYISQLAQFSQVESLEGMRKNQSNQMIMMENLGIVQSASLIGKNAMVPVSEFKLDGETVEGKVYLENAVEALDIEIVNSEGQVVHTMQLGAQAVGDIRFAIDPDELGLEKGQYEIKAKATLGENSLVAPTYIKAPIERIHFSSASGMMMAEMGHGVGVISVLNISEVS
MGSDKIHHHHHHMEVIFKRPKALSDREFTYCPGCHHGIIHRLIAEVIDELDIQEKTIMVAPVGCSVFAYEFFDVDGTVAPHGRALAVATGIKRALPDMIVFTYQGDGDLAAIGIAETIHAANRGEKLTTIFVNNAVYGMTGGQMAPTTLLGQKTTTTPYGRTAANDGYPLHVSEALSTIDGVAYLERTTVSTTKDILNTKKAIKKAFLAQIKGLGFGMVEVLSTCPTNWGMSPVEAQNWLLENMVKEFPPKVFVDKVGD
MGSDKIHHHHHHMEVIRLDKVSLWRRTQEEFSYDLKKTLLSLIEGKYRKPAKKLVLDNVDLVVEKGDKIGIIGANGSGKSTLLKIISGILQPTTGTVRVRGQVAPLIELGAGFDAEISVMDNILLYGVLLGFSRAEMKERANSILEFAELQDYALVPVKGLSSGMVARLGFSIATDVQPNILILDEVLSVGDENFKNKCKQRIDNFWNGDATVLVVSHDLQFVKQYCNQLVWLSHGKIEFIGDAGEAIQNYLSTLTST
